Patent publication US12168063B2, “Stable, concentrated radionuclide complex solutions” (Advanced Accelerator Applications SA, priority 2018, dated 2024)

Legend:
[1] = Stability study after storage: chemical purity (peptide purity) by RP-UV-HPLC; assay type: physicochemical
[2] = after 72 hours at 25° C.

Compound | stability with respect to chemical purity ([1]; 32° C. for 12 h and 25° for 60 h) | chemical purity ([1]; after 48 hours at 32° C.) [%] | chemical purity ([1]; after 72 hours at 25° C.) [%] | radiochemical purity [2]
C[C@@H](O)[C@H](NC(=O)[C@@H]1CSSC[C@H](NC(=O)[C@@H](Cc2ccccc2)NC(=O)CN2CCN(CC(=O)O)CCN(CC(=O)O)CCN(CC(=O)O)CC2)C(=O)N[C@@H](Cc2ccc(O)cc2)C(=O)N[C@H](Cc2c[nH]c3ccccc23)C(=O)N[C@@H](CCCCN)C(=O)N[C@@H]([C@@H](C)O)C(=O)N1)C(=O)O [DOTA-TATE, DOTA-d-Phe-Cys-Tyr-d-Trp-Lys-Thr-Cys-Thr (cyclo 2,7)] | such high stability was found | 100 | 100 | –
hydrogen [N-{[4,7,10-tris(carboxylato-κO-methyl)-1,4,7,10-tetraazacyclododecan-1-yl-κ^4N^1,N^4,N^7,N^10]acetyl-κO}-D-phenylalanyl-L-cysteinyl-tyrosyl-D-tryptophyl-L-lysyl-L-threonyl-L-cysteinyl-L-threoninato cyclic (2→7)-disulfide(4-)](177Lu)lutetate(1-) [^177Lu-DOTA-TATE] | – | – | – | at least 95%
